From patent US20260374861 (published 2026)

Tests used:
huILT4 protein [1] = target: huILT4 protein (human); assay: competition, ELISA, blocking SEMA4A
huILT4 protein [2] = target: huILT4 protein (human); assay: competition, FACS, blocking HLA-G
human ILT4-ECD = human ILT4-ECD (human); assay: ELISA
[3] = target: human ILT4 (cell surface) (human); assay: FACS
monkey ILT4-ECD = monkey ILT4-ECD (cynomolgus); assay: ELISA
Sequence of monkey ILT4-ECD (cynomolgus) (chain, as listed by the source): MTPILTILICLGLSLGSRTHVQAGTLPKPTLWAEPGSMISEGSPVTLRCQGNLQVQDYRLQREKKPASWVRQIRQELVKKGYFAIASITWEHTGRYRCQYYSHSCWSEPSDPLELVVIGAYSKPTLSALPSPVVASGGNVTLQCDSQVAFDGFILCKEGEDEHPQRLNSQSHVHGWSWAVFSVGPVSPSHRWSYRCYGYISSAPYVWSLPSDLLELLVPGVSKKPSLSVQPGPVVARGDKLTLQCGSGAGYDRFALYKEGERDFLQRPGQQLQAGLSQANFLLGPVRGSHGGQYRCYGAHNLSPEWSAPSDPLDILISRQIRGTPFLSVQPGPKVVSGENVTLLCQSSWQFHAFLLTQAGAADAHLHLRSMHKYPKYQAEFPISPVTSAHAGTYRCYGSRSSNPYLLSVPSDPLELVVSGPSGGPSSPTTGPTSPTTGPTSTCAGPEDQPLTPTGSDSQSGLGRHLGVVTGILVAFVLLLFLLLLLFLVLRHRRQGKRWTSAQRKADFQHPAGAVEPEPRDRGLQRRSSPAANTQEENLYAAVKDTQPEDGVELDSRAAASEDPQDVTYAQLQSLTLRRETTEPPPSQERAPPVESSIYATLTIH

Sequence of huILT4 protein (human) (chain, as listed by the source): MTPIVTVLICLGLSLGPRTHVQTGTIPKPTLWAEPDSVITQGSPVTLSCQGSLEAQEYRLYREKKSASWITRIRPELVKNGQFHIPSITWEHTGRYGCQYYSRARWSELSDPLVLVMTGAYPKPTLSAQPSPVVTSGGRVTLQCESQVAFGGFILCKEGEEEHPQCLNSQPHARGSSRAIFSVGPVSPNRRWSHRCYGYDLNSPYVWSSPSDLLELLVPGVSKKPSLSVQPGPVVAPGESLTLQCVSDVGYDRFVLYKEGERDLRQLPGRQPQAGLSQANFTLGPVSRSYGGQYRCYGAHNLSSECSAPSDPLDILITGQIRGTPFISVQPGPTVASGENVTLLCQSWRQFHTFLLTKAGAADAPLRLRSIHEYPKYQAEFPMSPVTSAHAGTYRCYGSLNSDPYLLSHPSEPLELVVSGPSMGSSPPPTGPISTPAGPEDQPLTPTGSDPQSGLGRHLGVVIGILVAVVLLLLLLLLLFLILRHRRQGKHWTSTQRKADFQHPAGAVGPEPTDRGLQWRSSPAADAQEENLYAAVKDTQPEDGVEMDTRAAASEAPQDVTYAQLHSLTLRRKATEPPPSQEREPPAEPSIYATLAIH
Sequence of human ILT4-ECD (human) (chain, as listed by the source): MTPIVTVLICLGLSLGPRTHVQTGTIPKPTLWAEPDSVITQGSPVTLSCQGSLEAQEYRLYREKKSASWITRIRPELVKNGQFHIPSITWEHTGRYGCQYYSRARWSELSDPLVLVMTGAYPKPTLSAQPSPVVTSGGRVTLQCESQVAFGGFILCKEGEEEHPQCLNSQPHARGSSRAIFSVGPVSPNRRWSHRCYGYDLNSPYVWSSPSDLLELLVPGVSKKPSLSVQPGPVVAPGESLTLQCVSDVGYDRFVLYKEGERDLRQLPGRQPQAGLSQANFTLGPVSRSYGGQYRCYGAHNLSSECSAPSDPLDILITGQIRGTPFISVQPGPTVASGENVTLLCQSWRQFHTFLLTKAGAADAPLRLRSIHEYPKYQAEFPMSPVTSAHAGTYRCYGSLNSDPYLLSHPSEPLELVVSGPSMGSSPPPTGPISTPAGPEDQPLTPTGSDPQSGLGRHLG

Binder	IC50 (huILT4 protein [1]) [pM]	IC50 (huILT4 protein [2]) [pM]	EC50 (human ILT4-ECD) [pM]	EC50 [3] [pM]	EC50 (monkey ILT4-ECD) [pM]
PR302949 (antibody, V domains shown) VH: EVQLLESGGGLVQPGGSLRLSCAASGFTFSSYAMSWVRQAPGKGLEWVSSISGSDFSTYYADSVKGRFTISRDTSKNTLYLQMNSLRAEDTAVYYCAKDRQWLVSSFDFWGQGALVTVSS VL: DIQMTQSPSSLSASVGDRVTITCQASQDISNYLNWYQQKPGKAPKLLIYDASNLETGVPSRFSGSGSGTDFTFTISSLQPEDIATYYCQQYDNLITFGQGTRLEIK	47900	8860	23	–	–
PR302702 (antibody, V domains shown) VH: EVQLLESGGGLVQPGGSLRLSCAASGFTFSTYAMTWVRQAPGKGLEWVSSISGSDFNTYYADSVKGRFTISRDISKNTLYLQMNSLRAEDTAVYYCAKDQEWLVRSFHHWGQGTLVTVSS VL: DIQMTQFPSSLFAFVGDRVTITCQASQDISNYLNWYQQKAGKAPKLLINDASNLETGVPSRFSGSGFGTDFTFTISSLQPEDFATYYCQQYENLPTFGGGTKVEIK	–	–	29	–	–
PR302282 (antibody, V domains shown) VH: QVQLVESGGTVVQSGRSLRLSCAASGFTFSSYGMHWVRQAPGKGLEWVAGMWYDGNYKYYADSVKGRFTISRDNSKNTLSLQMNSLRAEDTAVYYCARDSPIGVFDYWGQGTLVTVSS VL: DIQMTQSPSSLSASVGDRVTITCQASQDISNYLNWYQQKPGKAPKLLIYDASNLETGVPSRFSGSGSGTDFTFTISSLQPEDIATYYCQQYDNLITFGQGTRLEIK	48200	–	15	1880	–
PR302951 (antibody, V domains shown) VH: EVQLLESGGGLVQPGGSLRLSCAASRFTFSTYAMSWVRQAPGKGLEWVSSISGSGFNTYYADSVKGRFTISSDSSKNTLYLQMNSLRAEDTAVYYCAKDRQWLVSSFDYWGQGTLVTVSS VL: DIQMTQSPSSLSASVGDRVTITCQASQDISNYLNWYQQKPGKAPKLLIYDASNLETGVPSRFSGSGSGTDFTFTISSLQPEDIATYYCQQYDNLITFGQGTRLEIK	52900	8600	15	–	–
PR302934 (antibody, V domains shown) VH: QVQLQQWGAGLLKPSETLSLTCAVYGGSFSGYYWSWIRQTLGKGLEWIGEVSHSGGTNYNPSLKSRVTISVDTSKNQFSLKLSSVTAADTAVYYCARSPYYGDYMYVFDIWGQGTMVTVSS VL: not shown	–	–	12	–	47
PR301366 (antibody, V domains shown) VH: EVQLLESGGGLVQPGGSLRLSCAASGFTFSNYAMNWVRQAPGKGLEWVSVISVSGGSTYYADSVKGRFTISRDNSKNTLYLQMNSLRAEDTAVYYCAKDYYYDSGSYYDSFFDYWGQGTLVTVSS VL: not shown	34800	3990	14	362	401
PR302950 (antibody, V domains shown) VH: QVQLQESGPGLVKPSGTLSLTCAVSGGSISSSNWWSWVRQPPGKGLEWIGEVYHSGSTNYNPSLKSRVTISVDKSQNQFSLKLTSVTAADTAVYYCARVTGNKDYYYYDLDVWGQGTTVTVSS VL: not shown	65000	9340	56	–	–
PR302927 (antibody, V domains shown) VH: EVQLLESGGGLVQPGGSLRLSCAASGFTFSSYAMSWVRQAPGKGLEWVSTINHIGDSTYYADSVKGRFTISRDNSKNTLYLQMNSLRAEDTAVYYCAKDQWFGVFDYWGQGTLVTVSS VL: not shown	61400	10600	25	–	–
PR302239 (antibody, V domains shown) VH: QVQLQESGPGLVKPSETLSLTCTVSGDSISSYYWSWIRQPPGKGLEWIGFIYYSGSTNYNPSLKSRVTISVDTSKNQFSLKLTSVTAADTAVYYCANQLWFGESPFDYWGQGTLVTVSS VL: not shown	–	6490	–	–	–
PR302239-1 (antibody, V domains shown) VH: QVQLQESGPGLVKPSETLSLTCTVSGDSISSYYWSWIRQPPGKGLEWIGFIYYSGSTNYNPSLKSRVTISVDTSKNQFSLKLTSVTAADTAVYYCANQLWFGESPFDYWGQGTLVTVSS VL: not shown	–	–	36	931	–
PR303413 (antibody, V domains shown) VH: QVQLVESGGGVVQPGRSLRLSCAASGFTFSSYGMHWVRQAPGKGLGWVAGIWYAGSNEYYVDSVKGRFIISRDNSKNTLYLQMNSLRAEDTAVYYCARDQGWGTMDAWGQGASVTVSS VL: not shown	40900	5330	21	345	–
PR302259-1 (antibody, V domains shown) VH: EVQLLESGGGLVQPGGSLRLSCAVSGFTFSSYAMSWVRQAPGKGLEWVSAISDNAGSTYYADSVKGRFTISRDNSKNTLHLQMNSLRAEDTAVYSCAKERQWLVLGVMDAWGQGASVTVSS VL: not shown	–	–	12	262	–
PR302259 (antibody, V domains shown) VH: EVQLLESGGGLVQPGGSLRLSCAVSGFTFSSYAMSWVRQAPGKGLEWVSAISDNAGSTYYADSVKGRFTISRDNSKNTLHLQMNSLRAEDTAVYSCAKERQWLVLGVMDAWGQGASVTVSS VL: not shown	34100	3400	–	–	–
PR302264 (antibody, V domains shown) VH: QVQLQQWGAGLLKPSETLSLTCAVYGGSLSGYYWSWIRQPPGKGLEWIGEINHSGGTNYNPSLKSRVTISVPTSKNQFSLKLTSVTAADTAVYYCARGQQQLDWYFDLWGRGTLVTVSS VL: EIVMTQSPATLSVSPGERATLSCRASQNIYSHLVWYQQKPGQAPRLLIYGASTRATGIPARFSGSGSGTEFTLTITSLQSEDFTVYYCQQYNDWPPITFGQGTRLEIR	–	–	26	–	935
PR302261 (antibody, V domains shown) VH: EVQLLESGGGLVQSGGSLRLSCAASGFTFSSYAMSWVRQAPGKGLGWVSTISGSGGSAYYADSVKGRFTVSRDNSKKTLYLQMNSLRAEDTAVYFCAILSGDDAFDIWGQGTMVTVSS VL: DVVMTQSPLSLPVTPGEPASISCRSSQSLLRGNGYNYLDWYLQKPGQSPQLLIYLGSNRASGVPDRFSGSGSGTDFTLKISRVEAEDVGIFYCMQALQSPLTFGGGTKVEIK	–	–	32	–	8
